Reference: publication PMC9103234

Biological target: CD20 on the surface of Raji cells (human (endogenous in Raji)) (UniProt P11836)
Sequence of UniProt P11836 (P11836 whole entry): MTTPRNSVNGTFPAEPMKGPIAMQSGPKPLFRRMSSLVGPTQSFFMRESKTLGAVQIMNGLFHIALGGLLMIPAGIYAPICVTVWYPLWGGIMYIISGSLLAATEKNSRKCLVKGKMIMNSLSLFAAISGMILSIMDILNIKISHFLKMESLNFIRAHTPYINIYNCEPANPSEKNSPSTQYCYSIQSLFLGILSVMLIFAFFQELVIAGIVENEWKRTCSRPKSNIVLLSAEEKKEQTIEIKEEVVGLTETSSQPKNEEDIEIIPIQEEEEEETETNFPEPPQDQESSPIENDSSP

In the case of rituximab (antibody), the EC50 of complement-dependent cytotoxicity on Raji cells (LDH release, guinea-pig complement) is reported as 0.88 nM.
